Laboratory results taken from patent US20200129630A1, “METHODS FOR TREATING CANCER” (BicycleRD Limited, priority 2018, published 2020).
Read-outs that look alike come from different tables or passages of the source. Numbered stars: 1 amine (or outer) side, 2 acyl side, 3 side chain; on linkers, the order of the positions; unused ones are H or OH. Bridge positions count the residues as written; N and C are the ends. Square brackets hold non-standard residues; d marks the D form. Peptide text beside a SMILES is read from it. * marks the point of attachment. X1 = COc1cc2cc(c1Cl)N(C)C(=O)C[C@H](OC(=O)[C@H](C)N(C)C(=O)CCSSC(C)CCC(=O)*)[C@]1(C)O[C@H]1[C@H](C)[C@@H]1C[C@@](O)(NC(=O)O1)[C@H](OC)/C=C/C=C(\C)C2; 1Nal = N[C@@H](Cc1cccc2ccccc12)C(=O)O; TBMB = c1c(C[*:1])cc(C[*:3])cc1C[*:2]; Tle = CC(C)(C)[C@H](N)C(=O)O; βAla = NCCC(=O)O; Sar = CNCC(=O)O

Tests used:
[1] = Stability in plasma in vitro, rat; assay type: in vitro ADME; conditions: 37° C.
Experimental: (§1) The stability of BT1718 was assessed in plasma and whole blood from humans, monkey, dog, mouse and rat. […] The mechanism for the difference in stability of the BT1718 peptide in whole blood between the different species is unknown.

[2] = system: HCC-1806; assay: In vitro cytotoxicity (CellTiter-Glo) HCC-1806; assay type: cell-based; conditions: HCC-1806, Breast
Excerpt: (§2) Table 1 and Table 2 Notes: in general regression and stable disease correlated with the in vitro cytotoxicity and MT1-MMP expression. Female BALB/c mice n=3/group animals dosed twice per week except EBC-1 three per week. Tumor growth inhibition (TGI) (%)=[1−(Ti−T0)/(Vi−V0)]×100; Ti is the average tumor volume of a treatment group on a given day, TO is the average tumor volume of the treatment group on the day of treatment start, Vi is the average tumor volume of vehicle control group on the same day with Ti, and V0 is the average tumor volume of vehicle group on the day of treatment start. A one-way ANOVA was performed to compare tumor volume among groups, and when a significant F-statistics (a ratio of treatment variance to the error variance) was obtained, comparisons between groups were carried out with Games-Howell test. All data were analyzed using GraphPad Prism.* p<0.05, ** p<0.01, *** p<0.001. In vitro cytotoxicity was measured by CellTiter-Glo®, MT1-MMP membrane H score from immunohistochemistry staining, NM not measured. Tumor size on Day 1 of dosing.

[3] = system: MDA-MB-231; assay: In vitro cytotoxicity (CellTiter-Glo) MDA-MB-231; assay type: cell-based; conditions: MDA-MB-231, Breast
Excerpt: as §2

[4] = GLP-compliant 28-day repeat dose toxicity study, monkey; assay type: in vivo, Cynomolgus monkeys
Experimental: In a GLP-compliant study in Cynomolgus monkeys, the highest non-severely toxic dose (HNSTD) of BT1718 was established to be 18 mg/m^2 administered twice weekly, equivalent to a human dose of 0.48 mg/kg. In a GLP-compliant study in the rat, the MTD was not reached with the highest administered dose 6 mg/m^2 twice weekly. At this dose level, there was kidney toxicity (with no effect on clinical condition) and also testicular toxicity. After 28 days off-dose, there was evidence of partial recovery of kidney-related findings, but no recovery of testicular effects at this dose level. […] Therefore, the MTD for rat for twice weekly dosing was considered to be between 1 and 1.5 mg/kg.

[5] = system: HCT-15; assay: In vitro cytotoxicity (CellTiter-Glo) HCT-15; assay type: cell-based; conditions: HCT-15, Colorectal
Excerpt: as §2

[6] = Monkey GLP study toxicokinetics; assay type: in vivo; conditions: plasma, Day 1 male; for clearance / half-life / Cmax / Vd: Cynomolgus; for Cmax: read-out: C0/Cmax; for Vd: read-out: Vdss
Excerpt: In a repeat dose experiment with BT1718 no significant gender-related differences in the TK parameters for the rat or monkey were noted. Exposure in both the rat and monkey increased approximately linearly with dose and was maintained for 28 days on repeat dosing. […] Plasma clearance and volume of distribution were similar across BT1718 dose and consistent with the PK studies.

[7] = Stability in whole blood in vitro, rat; assay type: in vitro ADME; conditions: 37° C.
Experimental: as §1

[8] = Stability in plasma in vitro, mouse; assay type: in vitro ADME; conditions: 37° C.
Experimental: as §1

[9] = PK samples in EBC-1 xenograft study; conditions: female, BALB/c, mouse, plasma, iv
[10] = Stability in plasma in vitro, dog; assay type: in vitro ADME; conditions: 37° C.
Experimental: as §1

[11] = biological target: hemopexin domain of MT1-MMP (Homo sapiens, UniProt P50281); assay: Binding to hemopexin domain of MT1-MMP
Experimental: Bicycle drug conjugates (BDCs) with a variety of linkers and cytotoxic payloads were prepared which retained binding to MT1.
BT1718 is a BDC that binds to MT1-MMP and upon cleavage of its disulphide linker, releases the cytotoxic tubulin inhibitor, DM1 (also referred to as DM1-SH).

[12] = system: EBC-1 xenograft; assay: Dosing schedule experiment in EBC-1 xenograft mice; conditions: 60 mg/m^2 once weekly
Experimental: Anti-tumor activity was compared when equivalent total weekly doses were administered either once, twice or three times weekly or once daily.

[13] = Plasma protein binding, rat; assay type: in vitro ADME, rats; conditions: read-out: free fraction
Experimental: Plasma protein binding of BT1718 was also assessed. The mean plasma protein binding of the BT1718 peptide ranged from 87% to 98%, with the free fraction of BT1718 being 13% in human, 2.6% in rats, 7.5% in mice, 3.8% in monkey and 1.5% in dog plasma, the results had no correlation to the plasma and whole blood stability data. […] Plasma protein binding of unconjugated DM1, has previously been reported, with the unbound fraction being 7% in human and monkey and 3% in rat.

[14] = system: HT-29; assay: In vitro cytotoxicity (CellTiter-Glo) HT-29; assay type: cell-based; conditions: HT-29, Colorectal
Excerpt: as §2

[15] = 2.4 mg/m2, Monkeys GLP, 2.4 mg/m^2 IV
[16] = 6 mg/m2, Monkeys GLP, 6 mg/m^2 IV
[17] = 12 mg/m2, Monkeys GLP, 12 mg/m^2 IV
[18] = 18 mg/m2, Monkeys GLP, 18 mg/m^2 IV

## COc1cc2cc(c1Cl)N(C)C(=O)C[C@H](OC(=O)[C@H](C)N(C)C(=O)CCSSC(C)CCC(=O)NCCC(=O)N(C)CC(=O)N(C)CC(=O)N(C)CC(=O)N(C)CC(=O)N(C)CC(=O)N(C)CC(=O)N(C)CC(=O)N(C)CC(=O)N(C)CC(=O)N(C)CC(=O)N[C@@H](C)C(=O)N[C@H]1CSCc3cc4cc(c3)CSC[C@H](NC(=O)[C@@H](C)NC(=O)[C@H](Cc3cccc5ccccc35)NC(=O)[C@H](CCC(=O)O)NC(=O)[C@H](CC(N)=O)NC(=O)[C@@H](C)NC1=O)C(=O)N[C@@H](CCC(=O)O)C(=O)N[C@@H](CC(=O)O)C(=O)N[C@@H](Cc1ccccc1)C(=O)N[C@@H](Cc1ccc(O)cc1)C(=O)N[C@@H](CC(=O)O)C(=O)N[C@@H](C(C)(C)C)C(=O)N[C@H](C(N)=O)CSC4)[C@]1(C)O[C@H]1[C@H](C)[C@@H]1C[C@@](O)(NC(=O)O1)[C@H](OC)/C=C/C=C(\C)C2 (stereo partly drawn) [BT1718] ({X1-βAla}-[Sar][Sar][Sar][Sar][Sar][Sar][Sar][Sar][Sar][Sar]AC[dA]NE[1Nal][dA]CEDFYD[Tle]C-NH2; linker 12-18-25 via TBMB (inferred))
[1]
  half-life: > 360 min
[2]
  IC50: 1.4 nM
[3]
  IC50: 39.8 nM
[4]; 28 day-repeat dose GLP monkey study, twice weekly
  HNSTD: 1.5 mg/kg
[4]; Cynomolgus monkeys, GLP, twice weekly
  highest non-severely toxic dose (HNSTD): 18 mg/m^2
[4]; GLP monkey
  GI-related findings: No GI-related findings
  bladder changes: No bladder changes
[4]; GLP monkey up to 1.5 mg/kg, 18 mg/m^2 twice weekly
  liver toxicity: No liver toxicity
[4]; GLP monkey, 0.5 mg/kg (6 mg/m^2) twice weekly and above
  local toxicity at or around injection site: black colouration of the skin
[4]; GLP monkey, highest dose tested 1.5 mg/kg (18 mg/m^2)
  renal changes: No renal changes
[4]; GLP monkey, twice weekly
  onset dose of minimal axonal degeneration: 1 mg/kg
[4]; from 18 mg/m^2 twice weekly in monkeys
  HNSTD, equivalent human dose: 0.48 mg/kg
[4]; monkey 28-day GLP study
  anti-drug antibodies (ADAs) in serum: negative
[4]; monkey studies
  reproductive organ findings: No changes in reproduction organs
[4]; monkeys 1 mg/kg (12 mg/m^2) twice weekly or above
  increase in platelets: 1.4-2.5 ×
[4]; monkeys 1 mg/kg or 1.5 mg/kg twice weekly
  lymphoid findings: Reversible thymus atrophy and decreased germinal centres in lymph nodes
[4]; monkeys, onset 0.5 mg/kg (6 mg/m^2) twice weekly, reversible
  white blood cell (WBC) reduction, maximum: 0.11 ×
[4]; monkeys, onset 1 mg/kg (12 mg/m^2) twice weekly, reversible
  reticulocyte reduction, maximum: 0.2 ×
[5]
  IC50: 870 nM
[6]; [15]
  clearance: 13.4 ± 4.7 mL/min/kg
  half-life: 12.6 min
  Cmax: 200 ± 40 nM
  Vd: 0.24 ± 0.05 L/kg
  AUC: 0.08 ± 0.02 µM·h
[6]; [16]
  clearance: 8.8 ± 0.8 mL/min/kg
  half-life: 13.8 min
  Cmax: 670 ± 40 nM
  Vd: 0.17 ± 0.02 L/kg
  AUC: 0.28 ± 0.03 µM·h
[6]; [17]
  clearance: 8.2 ± 0.6 mL/min/kg
  half-life: 21.6 min
  Cmax: 1210 ± 90 nM
  Vd: 0.21 ± 0.01 L/kg
  AUC: 0.59 ± 0.14 µM·h
[6]; [18]
  clearance: 6.7 mL/min/kg
  half-life: 22.8 min
  Cmax: 2530 nM
  Vd: 0.16 L/kg
  AUC: 1.09 µM·h
[7]
  half-life: > 1440 min
[8]
  half-life: > 300 min
[9]; 3 mg/kg
  Cmax: 1.5 ± 0.9 µM
[9]; 10 mg/kg
  Cmax: 7.6 ± 0.6 µM
[10]
  half-life: > 360 min
[11]
  Ki: 1.75 ± 0.92 nM
[12]
  weight loss: > 10%
[13]
  fraction unbound: 0.026
[14]
  IC50: 13 nM
